Test results published in patent US20230313187A1, “MODIFICATIONS OF MAMMALIAN CELLS USING ARTIFICIAL MICRO-RNA TO ALTER THEIR PROPERTIES AND THE COMPOSITIONS OF THEIR PRODUCTS” (DNA TWOPOINTO INC., priority 2020, published 2023).

How the values were obtained:
[1] = test system: Cricetulus griseus glutamine synthetase mRNA; experiment: Growth of CHO cell pools with amiRNA targeted toward glutamine synthetase in the absence of glutamine; assay type: cell-based; details: for VCD: glutamine-free media
Source text: The multi-hairpin amiRNA was cloned into a piggyBac-like transposon to the 3′ of a spacer polynucleotide with nucleotide sequence SEQ ID NO: 280, and operably linked to a PGK promoter with nucleotide sequence SEQ ID NO: 386. The nucleotide sequence of the multi-hairpin amiRNA gene is given as SEQ ID NO: 540. The piggyBac-like transposon further comprised a selectable marker conferring resistance to G418/neomycin with amino acid sequence SEQ ID NO: 296. The piggyBac-like transposon further comprised a target sequence 5′-TTAA-3′ immediately followed by an ITR with nucleotide sequence SEQ ID NO: 448 (which is an embodiment of SEQ ID NO: 564), immediately followed by further transposon end sequences with nucleotide sequence SEQ ID NO: 445. The piggyBac-like transposon further comprised nucleotide sequence SEQ ID NO: 446, immediately followed by a second ITR with nucleotide sequence SEQ ID NO: 449 (which is an embodiment of SEQ ID NO: 447), immediately followed by the target sequence 5′-TTAA-3′. The transposon was configured so that the multi-hairpin amiRNA, the spacer polynucleotide and the gene encoding the selectable marker, as well as all necessary operably linked control elements, were transposable by a corresponding transposase. The full sequence of the transposon comprising the multi-hairpin amiRNA gene and selectable marker is given as SEQ ID NO: 544.
The transposon was co-transfected with mRNA encoding transposase with polypeptide sequence SEQ ID NO: 523 into a CHO cell line with intact glutamine synthetase genes. The pool of transfected cells were grown in the presence of 600 or 1,000 μg/ml G418 plus 5 mM glutamine until their viability reached 95%.
After the transfected cell pools had recovered to >95% viability, we tested their ability to grow in the absence of glutamine. Cells were transferred to Sigma Advanced Fed Batch media lacking glutamine to an initial a density of 0.3×10^6 live cells/ml. The viable cell density was measured at various times after the removal of glutamine. On the fourth day, cells were diluted back to a density of 0.3×10^6 live cells/ml in media lacking glutamine, to ensure that growing cells had sufficient nutrients. […] After this, the viable cell density approximately tripled between dilution on day 4 and day 6 and doubled again between day 6 and day 8. […] The viable cell density then began to fall for both pools transfected with a transposon comprising the multi-hairpin amiRNA with nucleotide sequence SEQ ID NO: 209 at day 6 (Table 7 columns B and C, compare rows 6, 7 and 8). By day 8 the viable cell density had fallen precipitously to less than 0.02×10^6 live cells/ml. There was no difference between the growth of cells transfected with the control transposon or the transposon comprising the multi-hairpin amiRNA with nucleotide sequence SEQ ID NO: 209 in the presence of glutamine: all pools grew well. We conclude that a multi-hairpin amiRNA comprising guide strand sequences complementary to three different sequences within the CHO glutamine synthetase mRNA target (nucleotide sequence SEQ ID NO: 10) can be used to make a CHO cell dependent upon exogenously provided glutamine. The cells in this pool had been selected with neomycin/G418, which allowed growth of cells whose genomes comprised the transposon comprising the multi-hairpin amiRNA. […] By using the multi-hairpin amiRNA gene we were able to produce a pool of cells in which expression of the essential metabolic enzyme glutamine synthetase was inhibited to a level that prevents growth of the cell in greater than 93% of the cells in the pool.
The multi-hairpin amiRNA with nucleotide sequence SEQ ID NO: 209 was also cloned into three other piggyBac-like transposons, also to the 3′ of a spacer polynucleotide with nucleotide sequence SEQ ID NO: 280. In the first transposon the multi-hairpin amiRNA was operably linked to a PGK promoter with nucleotide sequence SEQ ID NO: 385. […]

[2] = test system: Cricetulus griseus alpha-(1,6)-fucosyl transferase (FUT8) mRNA; experiment: Antibody titer and fucosylation with different numbers of amiRNA hairpins in the 3' UTR of the glutamine synthetase selectable marker; assay type: cell-based; details: for antibody titer: weaker (PGK) promoter operably linked to glutamine synthetase, amiRNA in 3' UTR; for antibody fucosylation: weaker (PGK) promoter, amiRNA in GS 3' UTR, natural level around 80-85%
Source text: One- two- or three-hairpin amiRNAs were incorporated into the 3′ UTR of a glutamine synthetase selectable marker on a transposon. The multi-hairpin amiRNA with nucleotide sequence SEQ ID NO: 194 comprised three hairpins as described in Section 6.1.1.1.
These amiRNA sequences were placed to the 3′ of an open reading frame encoding a glutamine synthetase protein (with polypeptide sequence SEQ ID NO: 307) and followed by a human globin polyadenylation sequence. The amiRNA genes were cloned into a transposon vector in which they were operably linked to a Pol II promoter. The transposon further comprised genes encoding an antibody with mature light chain polypeptide sequence SEQ ID NO: 286 and mature heavy chain polypeptide sequence SEQ ID NO: 288. The transposon further comprised a left end comprising a 5′-TTAA-3′ target sequence immediately followed by an ITR with nucleotide sequence SEQ ID NO: 423 (which is an embodiment of SEQ ID NO: 421) and additional nucleotide sequence SEQ ID NO: 417 and a right end comprising nucleotide sequence SEQ ID NO: 419 immediately followed by an ITR with nucleotide sequence SEQ ID NO: 424 (which is an embodiment of SEQ ID NO: 422) immediately followed by a 5′-TTAA-3′ target sequence. The transposon was configured so that the multi-hairpin amiRNA, the glutamine synthetase gene and the genes for both antibody chains, as well as all necessary operably linked control elements were transposable by a corresponding transposase.
Transposons were co-transfected with mRNA encoding transposase with polypeptide sequence SEQ ID NO: 472 into a CHO cell line with no functional glutamine synthetase gene. The pool of transfected cells were grown in the absence of glutamine added to the media until their viability reached 95%. They were then grown in a 14 day fed-batch using Sigma Advanced Fed Batch media. Protein was purified from the culture supernatant using protein A affinity chromatography, reduced with dithiothreitol, and analyzed on an Agilent QTOF mass spectrometer. We integrated the area under the peaks at 50,456 Da (corresponding to the heavy chain modified by G0: the conserved heptasaccharide core composed of 2 N-acetylglucosamine, 3 mannose and 2 other N-acetylglucosamine residues that are β-1,2 linked to α-6 mannose and α-3 mannose, forming two arms) and 50,602 (corresponding to the heavy chain modified by G0F: the conserved heptasaccharide core plus a fucose residue) to calculate the relative proportion of fucosylated and afucosylated antibody.
Table 5. Inhibition of antibody fucosylation with different numbers of amiRNA hairpins. Transposons were constructed as described in Section 6.1.2.1. The SEQ ID NO of the amiRNA gene including the glutamine synthetase ORF and the globin polyA sequence is given in column A. The Pol II promoter shown in column B was operably linked to the amiRNA whose SEQ ID NO is shown in column C. The amiRNA comprised the number of hairpins shown in column D. Following a 14-day fed batch antibody production run, the culture supernatant contained the concentration of antibody shown in column E. The percentage of antibody that was afucosylated is shown in column F, the percentage that was fucosylated is shown in column G. BDL=below detection limit.

Molecule | cells in the pool in which glutamine synthetase is inhibited to a level that prevents growth ([1]; G418-selected pool) | dependence on exogenously supplied glutamine ([1]; amiRNA operably linked to a promoter and integrated into the CHO genome, also PGK, EF1, EEF2 promoters in other transposons, listed as 209) | increase in viable cell density ([1]; between day 1 and day 4 without glutamine, pool selected with 600 μg/ml G418) | cells still alive ([1]; by day 8 without glutamine) | viable cell density ([1]; by day 8 without glutamine, both pools) | VCD ([1]; 600 ug/ml G418 pool, day 1) | VCD ([1]; 600 ug/ml G418 pool, day 4 after dilution) | VCD ([1]; 600 ug/ml G418 pool, day 4 before dilution) | VCD ([1]; 600 ug/ml G418 pool, day 6) | VCD ([1]; 600 ug/ml G418 pool, day 8) | VCD ([1]; 1000 ug/ml G418 pool, day 1) | VCD ([1]; 1000 ug/ml G418 pool, day 4 after dilution) | VCD ([1]; 1000 ug/ml G418 pool, day 4 before dilution) | VCD ([1]; 1000 ug/ml G418 pool, day 6) | VCD ([1]; 1000 ug/ml G418 pool, day 8) | VCD ([1]; pool selected with 600 ug/ml G418, day 0 (inoculation)) | VCD ([1]; pool selected with 1000 ug/ml G418, day 0 (inoculation)) | increase in viable cell density ([1]; to day 4 without glutamine, pool selected with 1,000 μg/ml G418) | antibody titer [2] | antibody fucosylation [2]
SEQ ID NO: 209: three-hairpin amiRNA, guides SEQ ID NOs 53, 54, 55 complementary to Cricetulus griseus glutamine synthetase mRNA (nucleic acid) ATCTGATCTTCTGAAGAAAATATATTTCTTTTTATTCATAGCTCTTAACTAGTGGTGATAGCAATGTCAGCAGTGCCTTTGAGTTACAATGAGACAGCTGGTGAAGCCACAGATGCAGCTGTCTCCTTGTAACTCACAAGTAAGGTTGACCATACTCTACTCTAGAGTTGTGTTTTAATGTATATTAATGTTACTAATGTGTTTACTAGTGGTGATAGCAATGTCAGCAGTGCCTTATTCTGACCAATAAAAGCAAGGTGAAGCCACAGATGCTTGCTTTTACTGGTCAGAATCAAGTAAGGTTGACCATACTCTACTCTAGGTTATTTTTAGTATGATTCTGTAAAAATGAATTAATACTAACTAGTGGTGATAGCAATGTCAGCAGTGCCTTTTTACCTGAAGAACTAGCAGCGTGAAGCCACAGATGGCTGCTAGTTATTCAGGTAAACAAGTAAGGTTGACCATACTCTACTCTAGTCAGTTTTATTGATAGTCTTTTCAGTATTATTGATAATCTT | greater than 93% | completely dependent upon exogenously supplied glutamine | less than 50% | less than 7% | less than 0.02 ×10^6 live cells/ml | 0.45 x 10^6 live cells/ml | 0.30 x 10^6 live cells/ml | 0.47 x 10^6 live cells/ml | 0.21 x 10^6 live cells/ml | 0.01 x 10^6 live cells/ml | 0.31 x 10^6 live cells/ml | 0.30 x 10^6 live cells/ml | 0.30 x 10^6 live cells/ml | 0.26 x 10^6 live cells/ml | 0.02 x 10^6 live cells/ml | 0.30 x 10^6 live cells/ml | 0.30 x 10^6 live cells/ml | failed to increase their viable cell density at all | – | –
SEQ ID NO: 197: single hairpin amiRNA, guide SEQ ID NO: 23 complementary to Cricetulus griseus FUT8 mRNA (nucleic acid) ATCTGATCTTCTGAAGAAAATATATTTCTTTTTATTCATAGCTCTTAACTAGTGGTGATAGCAATGTCAGCAGTGCCTGGAAAAACATCCATTCTCATTCGTGAAGCCACAGATGGAATGAGAATAGATGTTTTTCAAAGTAAGGTTGACCATACTCTACTCTAGAGTTGTGTTTTAATGTATATTAATGTTACTAATGTGTTTTCAGTTTTATTGATAGTCTTTTCAGTATTATTGATAATCTT | – | – | – | – | – | – | – | – | – | – | – | – | – | – | – | – | – | – | 514 mg/L | about 50%
SEQ ID NO: 196: two-hairpin amiRNA, guides SEQ ID NOs 23 and 24 complementary to Cricetulus griseus FUT8 mRNA (nucleic acid) ATCTGATCTTCTGAAGAAAATATATTTCTTTTTATTCATAGCTCTTAACTAGTGGTGATAGCAATGTCAGCAGTGCCTGGAAAAACATCCATTCTCATTCGTGAAGCCACAGATGGAATGAGAATAGATGTTTTTCAAAGTAAGGTTGACCATACTCTACTCTAGTTATATTCTTTAGGCACGAATGTGTGTTTAAAAAAAATAAAAACTAGTGGTGATAGCAATGTCAGCAGTGCCTTTAAATTACATAATGTGGCAGTGTGAAGCCACAGATGACTGCCACATCATGTAATTTACAAGTAAGGTTGACCATACTCTACTCTAGAGTTGTGTTTTAATGTATATTAATGTTACTAATGTGTTTTCAGTTTTATTGATAGTCTTTTCAGTATTATTGATAATCTT | – | – | – | – | – | – | – | – | – | – | – | – | – | – | – | – | – | – | 770 mg/L | 10%
